Laboratory results reported in patent US7183387 (Genentech, dated 2007).

T1: human FcγRIIA-R131 α subunit extracellular domain-6His-GST fusion (human, UniProt P12318 34-217)
T1 construct: also called FcγRIIA-Arg131; not shown: glutathione S-transferase (GST)
T1 sequence: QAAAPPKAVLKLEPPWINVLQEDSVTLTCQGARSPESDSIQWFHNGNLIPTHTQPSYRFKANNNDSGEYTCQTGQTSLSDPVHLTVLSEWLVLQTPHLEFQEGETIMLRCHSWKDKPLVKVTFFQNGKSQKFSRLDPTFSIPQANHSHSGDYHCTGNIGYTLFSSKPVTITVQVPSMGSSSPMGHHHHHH

T2: human FcγRIIB α subunit extracellular domain-6His-GST fusion (human, UniProt P31994 43-217)
T2 construct: not shown: glutathione S-transferase (GST)
T2 sequence: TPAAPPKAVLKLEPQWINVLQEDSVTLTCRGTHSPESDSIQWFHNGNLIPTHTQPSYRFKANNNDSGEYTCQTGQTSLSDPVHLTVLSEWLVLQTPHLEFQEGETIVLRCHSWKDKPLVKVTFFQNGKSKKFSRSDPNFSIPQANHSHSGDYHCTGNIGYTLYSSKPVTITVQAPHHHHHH

T3: human FcγRIIA-R131 α subunit extracellular domain-His6-GST fusion (human, UniProt P12318 34-217)
T3 construct: ECD-6His-GST fusion made in 293 cells; also called FcγRIIA-Arg131; not shown: glutathione S transferase (GST)
T3 sequence: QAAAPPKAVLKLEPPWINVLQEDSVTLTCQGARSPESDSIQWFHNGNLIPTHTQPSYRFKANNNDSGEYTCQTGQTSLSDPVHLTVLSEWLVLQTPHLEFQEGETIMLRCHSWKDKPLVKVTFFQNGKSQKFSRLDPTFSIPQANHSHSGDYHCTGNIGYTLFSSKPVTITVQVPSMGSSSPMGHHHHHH


Legend:
[1] = molecular target: T1, human FcγRIIA-R131 α subunit …; experiment: ELISA, IgG:IgE hexamers on receptor-GST
[2] = molecular target: T2, human FcγRIIB α subunit extracellular …; experiment: ELISA, IgG:IgE hexamers on receptor-GST
[3] = molecular target: T4, human FcγRIIIA-F158 α subunit extracellular domain-6His-GST fusion (human, UniProt P08637 17-208); experiment: ELISA, IgG:IgE hexamers on receptor-GST
T4 construct: also called FcγRIIIA-Phe158; not shown: glutathione S-transferase (GST)

[4] = molecular target: T3, human FcγRIIA-R131 α subunit …; experiment: ELISA, IgG complex, receptor coated
[5] = molecular target: T5, human FcγRIIIA-F158 α subunit extracellular domain-His6-GST fusion (human, UniProt P08637 17-208); experiment: ELISA, IgG complex, receptor coated
T5 construct: ECD-6His-GST fusion made in 293 cells; also called FcγRIIIA-Phe158; not shown: glutathione S transferase (GST)

[6] = molecular target: T6, human FcγRIIIA-V158 α subunit extracellular domain-His6-GST fusion (human, UniProt P08637 17-208); experiment: ELISA, IgG complex, receptor coated
T6 construct: ECD-6His-GST fusion made in 293 cells; also called FcγRIIIA-Val158; not shown: glutathione S transferase (GST)

[7] = molecular target: T6, human FcγRIIIA-V158 α subunit …; experiment: ELISA, IgG monomer, receptor coated

T4 sequence (P08637 other isoform, or with tags, fused parts or gaps, form in doubt): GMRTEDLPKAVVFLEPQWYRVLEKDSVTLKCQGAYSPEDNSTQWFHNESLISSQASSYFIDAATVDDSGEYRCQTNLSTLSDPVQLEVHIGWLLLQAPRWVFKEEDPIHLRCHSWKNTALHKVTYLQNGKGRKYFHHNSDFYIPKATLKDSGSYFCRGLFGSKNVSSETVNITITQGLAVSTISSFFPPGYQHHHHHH
T6 sequence (P08637 other isoform, or with tags, fused parts or gaps, form in doubt): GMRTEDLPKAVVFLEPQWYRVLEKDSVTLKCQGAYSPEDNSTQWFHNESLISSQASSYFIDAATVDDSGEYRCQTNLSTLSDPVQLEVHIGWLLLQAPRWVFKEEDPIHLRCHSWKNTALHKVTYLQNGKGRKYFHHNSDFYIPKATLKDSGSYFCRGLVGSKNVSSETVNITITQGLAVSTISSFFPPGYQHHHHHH

Binder | ratio to native IgG1 [1] | ratio to native IgG1 [2] | ratio to native IgG1 [3] | ratio of binding, variant/native IgG1 (mean) [4] | ratio of binding, variant/native IgG1 (mean) [5] | ratio of binding, variant/native IgG1 (mean) [6] | ratio of binding, variant/native IgG1 (mean) [7]
E27 IgG1 variant E333(352)A/K334(353)A (antibody) heavy: not shown light: DIQLTQSPSSLSASVGDRVTITCRASKPVDGEGDSYLNWYQQKPGKAPKLLIYAASYLESGVPSRFSGSGSGTDFTLTISSLQPEDFATYYCQQSHEDPYTFGQGTKVEIKRTVAAPSVFIFPPSDEQLKSGTASVVCLLNNFYPREAKVQWKVDNALQSGNSQESVTEQDSKDSTYSLSSTLTLSKADYEKHKVYACEVTHQGLSSPVTKSFNRGEC | 0.72 | 0.63 | 1.3 |  |  |  | 
anti-IgE E27 IgG1 variant T256(269)N (antibody, Fc variant of E27) heavy: not shown light: DIQLTQSPSSLSASVGDRVTITCRASKPVDGEGDSYLNWYQQKPGKAPKLLIYAASYLESGVPSRFSGSGSGTDFTLTISSLQPEDFATYYCQQSHEDPYTFGQGTKVEIKRTVAAPSVFIFPPSDEQLKSGTASVVCLLNNFYPREAKVQWKVDNALQSGNSQESVTEQDSKDSTYSLSSTLTLSKADYEKHKVYACEVTHQGLSSPVTKSFNRGEC |  |  |  | 1.03 ratio | 1.13 ratio | 0.95 ratio | 0.88 ratio
E27 IgG1 variant S298(317)A/E333(352)A (antibody) heavy: not shown light: DIQLTQSPSSLSASVGDRVTITCRASKPVDGEGDSYLNWYQQKPGKAPKLLIYAASYLESGVPSRFSGSGSGTDFTLTISSLQPEDFATYYCQQSHEDPYTFGQGTKVEIKRTVAAPSVFIFPPSDEQLKSGTASVVCLLNNFYPREAKVQWKVDNALQSGNSQESVTEQDSKDSTYSLSSTLTLSKADYEKHKVYACEVTHQGLSSPVTKSFNRGEC | 0.34 | 0.16 | 1.53 |  |  |  | 
E27 IgG1 variant S298(317)A/E333(352)A/K334(353)A (antibody, also called IG2 110) heavy: EVQLVESGGGLVQPGGSLRLSCAVSGYSITSGYSWNWIRQAPGKGLEWVASIKYSGETKYNPSVKGRITISRDDSKNTFYLQMNSLRAEDTAVYYCARGSHYFGHWHFAVWGQGTLVTVSSASTKGPSVFPLAPSSKSTSGGTAALGCLVKDYFPEPVTVSWNSGALTSGVHTFPAVLQSSGLYSLSSVVTVPSSSLGTQTYICNVNHKPSNTKVDKKVEPKSCDKTHTCPPCPAPELLGGPSVFLFPPKPKDTLMISRTPEVTCVVVDVSHEDPEVKFNWYVDGVEVHNAKTKPREEQYNATYRVVSVLTVLHQDWLNGKEYKCKVSNKALPAPIAATISKAKGQPREPQVYTLPPSREEMTKNQVSLTCLVKGFYPSDIAVEWESNGQPENNYKTTPPVLDSDGSFFLYSKLTVDKSRWQQGNVFSCSVMHEALHNHYTQKSLSLSPGK light: DIQLTQSPSSLSASVGDRVTITCRASKPVDGEGDSYLNWYQQKPGKAPKLLIYAASYLESGVPSRFSGSGSGTDFTLTISSLQPEDFATYYCQQSHEDPYTFGQGTKVEIKRTVAAPSVFIFPPSDEQLKSGTASVVCLLNNFYPREAKVQWKVDNALQSGNSQESVTEQDSKDSTYSLSSTLTLSKADYEKHKVYACEVTHQGLSSPVTKSFNRGEC | 0.34 | 0.15 | 1.51 |  |  |  | 
E27 IgG1 variant S267(280)A/E272(285)A (antibody, also called IG2 250) heavy: not shown light: DIQLTQSPSSLSASVGDRVTITCRASKPVDGEGDSYLNWYQQKPGKAPKLLIYAASYLESGVPSRFSGSGSGTDFTLTISSLQPEDFATYYCQQSHEDPYTFGQGTKVEIKRTVAAPSVFIFPPSDEQLKSGTASVVCLLNNFYPREAKVQWKVDNALQSGNSQESVTEQDSKDSTYSLSSTLTLSKADYEKHKVYACEVTHQGLSSPVTKSFNRGEC | 1.51 | 1.82 | 0.95 |  |  |  | 
E27 IgG1 variant S267(280)A/R255(268)A (antibody, also called IG2 247) heavy: not shown light: DIQLTQSPSSLSASVGDRVTITCRASKPVDGEGDSYLNWYQQKPGKAPKLLIYAASYLESGVPSRFSGSGSGTDFTLTISSLQPEDFATYYCQQSHEDPYTFGQGTKVEIKRTVAAPSVFIFPPSDEQLKSGTASVVCLLNNFYPREAKVQWKVDNALQSGNSQESVTEQDSKDSTYSLSSTLTLSKADYEKHKVYACEVTHQGLSSPVTKSFNRGEC | 1.6 | 1.72 | 0.88 |  |  |  | 
E27 IgG1 variant S267(280)A/H268(281)A (antibody, also called IG2 96) heavy: not shown light: DIQLTQSPSSLSASVGDRVTITCRASKPVDGEGDSYLNWYQQKPGKAPKLLIYAASYLESGVPSRFSGSGSGTDFTLTISSLQPEDFATYYCQQSHEDPYTFGQGTKVEIKRTVAAPSVFIFPPSDEQLKSGTASVVCLLNNFYPREAKVQWKVDNALQSGNSQESVTEQDSKDSTYSLSSTLTLSKADYEKHKVYACEVTHQGLSSPVTKSFNRGEC | 1.41 | 1.56 | 0.96 |  |  |  | 

Second part, the binder after the results:

ratio to native IgG1 [1] | ratio to native IgG1 [2] | ratio to native IgG1 [3] | ratio of binding, variant/native IgG1 (mean) [4] | ratio of binding, variant/native IgG1 (mean) [5] | ratio of binding, variant/native IgG1 (mean) [6] | ratio of binding, variant/native IgG1 (mean) [7] | Binder
1.62 | 2.01 | 1.04 |  |  |  |  | E27 IgG1 variant S267(280)A/E258(271)A (antibody) heavy: not shown light: DIQLTQSPSSLSASVGDRVTITCRASKPVDGEGDSYLNWYQQKPGKAPKLLIYAASYLESGVPSRFSGSGSGTDFTLTISSLQPEDFATYYCQQSHEDPYTFGQGTKVEIKRTVAAPSVFIFPPSDEQLKSGTASVVCLLNNFYPREAKVQWKVDNALQSGNSQESVTEQDSKDSTYSLSSTLTLSKADYEKHKVYACEVTHQGLSSPVTKSFNRGEC
0.41 | 0.19 | 1.62 |  |  |  |  | E27 IgG1 variant S298(317)A/K334(353)A (antibody) heavy: not shown light: DIQLTQSPSSLSASVGDRVTITCRASKPVDGEGDSYLNWYQQKPGKAPKLLIYAASYLESGVPSRFSGSGSGTDFTLTISSLQPEDFATYYCQQSHEDPYTFGQGTKVEIKRTVAAPSVFIFPPSDEQLKSGTASVVCLLNNFYPREAKVQWKVDNALQSGNSQESVTEQDSKDSTYSLSSTLTLSKADYEKHKVYACEVTHQGLSSPVTKSFNRGEC
1.67 | 1.85 | 0.92 |  |  |  |  | E27 IgG1 variant S267(280)A/E293(310)A (antibody, also called IG2 251) heavy: not shown light: DIQLTQSPSSLSASVGDRVTITCRASKPVDGEGDSYLNWYQQKPGKAPKLLIYAASYLESGVPSRFSGSGSGTDFTLTISSLQPEDFATYYCQQSHEDPYTFGQGTKVEIKRTVAAPSVFIFPPSDEQLKSGTASVVCLLNNFYPREAKVQWKVDNALQSGNSQESVTEQDSKDSTYSLSSTLTLSKADYEKHKVYACEVTHQGLSSPVTKSFNRGEC
1.54 | 1.96 | 1.13 |  |  |  |  | E27 IgG1 variant S267(280)A/D280(295)A (antibody, also called IG2 248) heavy: not shown light: DIQLTQSPSSLSASVGDRVTITCRASKPVDGEGDSYLNWYQQKPGKAPKLLIYAASYLESGVPSRFSGSGSGTDFTLTISSLQPEDFATYYCQQSHEDPYTFGQGTKVEIKRTVAAPSVFIFPPSDEQLKSGTASVVCLLNNFYPREAKVQWKVDNALQSGNSQESVTEQDSKDSTYSLSSTLTLSKADYEKHKVYACEVTHQGLSSPVTKSFNRGEC
1.48 | 2.03 | 0.89 |  |  |  |  | E27 IgG1 variant S267(280)A/E258(271)A/D280(295)A/R255(268)A (antibody, also called IG2 264) heavy: EVQLVESGGGLVQPGGSLRLSCAVSGYSITSGYSWNWIRQAPGKGLEWVASIKYSGETKYNPSVKGRITISRDDSKNTFYLQMNSLRAEDTAVYYCARGSHYFGHWHFAVWGQGTLVTVSSASTKGPSVFPLAPSSKSTSGGTAALGCLVKDYFPEPVTVSWNSGALTSGVHTFPAVLQSSGLYSLSSVVTVPSSSLGTQTYICNVNHKPSNTKVDKKVEPKSCDKTHTCPPCPAPELLGGPSVFLFPPKPKDTLMISATPAVTCVVVDVAHEDPEVKFNWYVAGVEVHNAKTKPREEQYNSTYRVVSVLTVLHQDWLNGKEYKCKVSNKALPAPIEKTISKAKGQPREPQVYTLPPSREEMTKNQVSLTCLVKGFYPSDIAVEWESNGQPENNYKTTPPVLDSDGSFFLYSKLTVDKSRWQQGNVFSCSVMHEALHNHYTQKSLSLSPGK light: DIQLTQSPSSLSASVGDRVTITCRASKPVDGEGDSYLNWYQQKPGKAPKLLIYAASYLESGVPSRFSGSGSGTDFTLTISSLQPEDFATYYCQQSHEDPYTFGQGTKVEIKRTVAAPSVFIFPPSDEQLKSGTASVVCLLNNFYPREAKVQWKVDNALQSGNSQESVTEQDSKDSTYSLSSTLTLSKADYEKHKVYACEVTHQGLSSPVTKSFNRGEC
